Here are results for 2 molecules from PMC8063937, “A Novel Cysteine Protease Inhibitor of Naegleria fowleri That Is Specifically Expressed during Encystation and at Mature Cysts” (Pathogens, 2021).

Data set [1] concerns the target recombinant cathepsin-B-like cysteine protease of N. fowleri (NfCBL) (Naegleria fowleri). In words: enzyme inhibition assay (residual activity on a fluorogenic substrate); 10 nM enzyme incubated with 0-100 nM NfCPI in 50 mM sodium acetate pH 6.0, 20 min, RT; substrate Z-LR-MCA in 50 mM sodium acetate pH 5.0 with 10 mM DTT; Ki calculated from IC50 and Km, non-linear regression.

The target in data set [2] is T1, recombinant cathepsin-B cysteine protease of N. fowleri (NfCB) (Naegleria fowleri).
T1 chain: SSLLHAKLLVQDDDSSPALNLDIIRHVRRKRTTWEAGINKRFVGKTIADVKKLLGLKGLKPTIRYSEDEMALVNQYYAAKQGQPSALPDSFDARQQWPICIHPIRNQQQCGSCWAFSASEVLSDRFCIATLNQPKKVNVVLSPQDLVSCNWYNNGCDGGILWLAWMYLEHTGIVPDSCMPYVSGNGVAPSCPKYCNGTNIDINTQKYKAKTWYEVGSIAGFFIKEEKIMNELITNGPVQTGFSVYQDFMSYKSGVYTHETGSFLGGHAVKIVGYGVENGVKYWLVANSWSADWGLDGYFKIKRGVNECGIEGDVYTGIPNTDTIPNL
The description is as above. To be noted: both partners purified.

A further data set deals with T2, papain (UniProt P00784 134-345).
T2 construct: Papain, cysteine protease bought from Sigma; source: bought: Sigma
T2 sequence (looked up): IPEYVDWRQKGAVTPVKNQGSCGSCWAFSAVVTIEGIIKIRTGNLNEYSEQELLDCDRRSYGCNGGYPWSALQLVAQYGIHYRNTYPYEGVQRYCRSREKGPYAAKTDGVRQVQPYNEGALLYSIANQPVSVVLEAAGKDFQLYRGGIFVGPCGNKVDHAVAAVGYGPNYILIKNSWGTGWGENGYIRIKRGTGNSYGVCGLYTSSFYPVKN
The description is as above. As to conditions: both partners purified.

Data set [3] concerns the molecule itself. In words: non-reducing PAGE; purified NfCPI, with 0-10% SDS, without β-mercaptoethanol, with or without heating at 100 °C for 5 min.

In the case of “recombinant cysteine protease inhibitor of Naegleria fowleri (NfCPI), lacking the signal peptide (from UniProt A0A6A5BTM4 30-136) (natural protein)”, the Ki in data set [1] is 0.144 nM.

B1: recombinant cysteine protease inhibitor of Naegleria fowleri (NfCPI), lacking the signal peptide (natural protein)
chain: ALPIATNVIPGGRQPISNQTLIEELTTFIPKASSNGVCRVTRVLSAQQQVVAGTIYYLVVEVSTSCDATSSQTFCEKLKIFRPLVTRSVENPQLQLQKEQRVDCNTP
notes: ORF of 136 residues; the forward primer encodes LPIATNV as its first residues, the reverse primer ends at the stop codon; cDNA from strain Carter NF69 (ATCC 30215); also called recombinant NfCPI; source: E. coli M15 (pREP14), pQE-9, purified (Ni-NTA)
Turning to B1, the Ki in data set [2] is 0.193 nM; in the data set with papain, 0.259 nM. Moreover, the “stoichiometry N” value in data set [3] amounted to 2.
